Values of other authors, collected in PMC3308923.

Target: HIV-1 capsid CA (Human immunodeficiency virus 1) (UniProt O93182)
Details: cited from earlier work

Sequence of HIV-1 capsid CA (Human immunodeficiency virus 1) (O93182 133-363): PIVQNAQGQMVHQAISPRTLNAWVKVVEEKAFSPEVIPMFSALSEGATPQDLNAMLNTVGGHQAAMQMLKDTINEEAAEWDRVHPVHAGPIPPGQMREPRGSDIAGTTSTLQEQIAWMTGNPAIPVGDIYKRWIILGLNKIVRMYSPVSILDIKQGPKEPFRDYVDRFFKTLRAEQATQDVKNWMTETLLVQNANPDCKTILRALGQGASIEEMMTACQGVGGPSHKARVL

CAI peptide
Kd: 15 µM
